Columns and labels:
Assay in all cases: cell-based or functional assay
[1] = target: SARS-CoV-2 spike (S) protein of Omicron sublineage BJ.1 (R346T, V445P, G446S) (SARS-CoV-2) (UniProt P0DTC2)
[2] = target: SARS-CoV-2 spike (S) protein of Omicron sublineage BA.2.75 (G446S) (SARS-CoV-2) (UniProt P0DTC2)
[3] = target: SARS-CoV-2 spike (S) protein of Omicron sublineage BQ.1.1 (R346T, K444T, F486V) (SARS-CoV-2) (UniProt P0DTC2)
[4] = target: SARS-CoV-2 spike (S) protein, Omicron variant BA.2.12.1 (SARS-CoV-2) (UniProt P0DTC2)
[5] = target: SARS-CoV-2 spike protein, Delta variant (B.1.617.2) (SARS-CoV-2)
[6] = target: SARS-CoV-2 spike (S) protein, Omicron variant BA.1 (SARS-CoV-2) (UniProt P0DTC2)
[7] = target: SARS-CoV-2 spike protein, Alpha variant (B.1.1.7) (SARS-CoV-2)
[8] = target: SARS-CoV-2 spike (S) protein, Omicron variant BA.2 (SARS-CoV-2) (UniProt P0DTC2)
[9] = target: SARS-CoV-2 spike protein, Beta variant 1 (B.1.351 v1) (SARS-CoV-2)
[10] = target: SARS-CoV-2 spike protein, Gamma variant (P.1) (SARS-CoV-2)
[11] = target: SARS-CoV-2 spike protein, Mu variant (B.1.621) (SARS-CoV-2)
[12] = target: SARS-CoV-2 spike protein, C.1.2 variant (SARS-CoV-2)
[13] = target: SARS-CoV-2 spike protein, Delta variant (AY.1) (SARS-CoV-2)

Chain of MX412 (A23-58H/B1-182L × A19-61) (bispecific antibody) (chain): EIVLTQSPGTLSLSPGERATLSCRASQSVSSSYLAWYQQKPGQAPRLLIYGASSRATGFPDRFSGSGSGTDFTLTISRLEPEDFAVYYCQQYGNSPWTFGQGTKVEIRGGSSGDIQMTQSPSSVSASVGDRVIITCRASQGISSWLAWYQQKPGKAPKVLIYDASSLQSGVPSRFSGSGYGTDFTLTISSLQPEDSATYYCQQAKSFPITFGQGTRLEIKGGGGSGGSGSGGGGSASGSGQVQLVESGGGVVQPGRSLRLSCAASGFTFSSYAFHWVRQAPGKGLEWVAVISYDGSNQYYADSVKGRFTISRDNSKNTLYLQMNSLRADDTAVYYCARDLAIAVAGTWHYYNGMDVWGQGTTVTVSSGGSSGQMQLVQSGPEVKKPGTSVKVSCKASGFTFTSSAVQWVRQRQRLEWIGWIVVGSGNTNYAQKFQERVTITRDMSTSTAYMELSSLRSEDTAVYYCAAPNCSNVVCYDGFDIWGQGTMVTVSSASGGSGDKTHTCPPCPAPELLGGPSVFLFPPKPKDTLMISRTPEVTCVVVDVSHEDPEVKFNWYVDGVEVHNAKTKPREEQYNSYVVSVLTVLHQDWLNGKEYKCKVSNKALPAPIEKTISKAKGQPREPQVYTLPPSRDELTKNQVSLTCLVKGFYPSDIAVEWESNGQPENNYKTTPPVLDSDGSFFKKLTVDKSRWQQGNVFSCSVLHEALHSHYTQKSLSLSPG
Chain of MX468 (A19-61 × A23-58H/B1-182L CL-CH1) (bispecific antibody) (chain): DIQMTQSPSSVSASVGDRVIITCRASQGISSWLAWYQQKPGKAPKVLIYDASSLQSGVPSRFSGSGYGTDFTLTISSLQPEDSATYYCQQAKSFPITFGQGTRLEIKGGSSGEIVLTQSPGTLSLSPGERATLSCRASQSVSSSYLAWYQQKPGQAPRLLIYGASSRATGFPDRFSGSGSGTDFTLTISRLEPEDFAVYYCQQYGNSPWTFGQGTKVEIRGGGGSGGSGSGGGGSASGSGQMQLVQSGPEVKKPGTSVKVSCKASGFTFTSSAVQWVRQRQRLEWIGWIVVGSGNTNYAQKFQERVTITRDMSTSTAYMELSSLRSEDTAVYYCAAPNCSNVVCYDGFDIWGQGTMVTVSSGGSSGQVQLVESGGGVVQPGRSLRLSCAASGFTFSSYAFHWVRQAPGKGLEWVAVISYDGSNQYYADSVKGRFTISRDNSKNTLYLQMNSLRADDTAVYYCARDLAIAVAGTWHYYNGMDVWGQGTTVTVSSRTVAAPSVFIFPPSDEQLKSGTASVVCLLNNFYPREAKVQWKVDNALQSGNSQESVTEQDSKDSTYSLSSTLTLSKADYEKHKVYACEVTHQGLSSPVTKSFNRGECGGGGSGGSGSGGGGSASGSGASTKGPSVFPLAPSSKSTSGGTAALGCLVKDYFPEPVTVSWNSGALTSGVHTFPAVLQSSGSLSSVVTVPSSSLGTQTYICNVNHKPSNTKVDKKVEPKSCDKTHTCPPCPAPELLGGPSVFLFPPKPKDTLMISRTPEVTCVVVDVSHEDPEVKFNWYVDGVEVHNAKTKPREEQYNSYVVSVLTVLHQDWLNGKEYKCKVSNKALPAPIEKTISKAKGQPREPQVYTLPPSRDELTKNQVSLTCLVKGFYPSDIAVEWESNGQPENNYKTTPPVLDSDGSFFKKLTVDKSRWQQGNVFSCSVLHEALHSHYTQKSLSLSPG
Chain of A19-46.1 antibody (VH): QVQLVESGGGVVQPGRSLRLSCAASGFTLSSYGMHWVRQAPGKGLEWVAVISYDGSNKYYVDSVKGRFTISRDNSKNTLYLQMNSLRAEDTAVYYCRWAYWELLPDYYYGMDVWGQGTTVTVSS
Chain of A19-46.1 antibody (VL): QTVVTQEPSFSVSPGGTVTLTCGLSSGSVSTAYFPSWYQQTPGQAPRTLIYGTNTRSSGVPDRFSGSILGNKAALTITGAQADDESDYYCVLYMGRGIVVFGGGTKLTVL
Chain of MX492 (A19-46 x A23-58H/B1-182L) bispecific, tetravalent molecule with Fc (bispecific antibody) (chain): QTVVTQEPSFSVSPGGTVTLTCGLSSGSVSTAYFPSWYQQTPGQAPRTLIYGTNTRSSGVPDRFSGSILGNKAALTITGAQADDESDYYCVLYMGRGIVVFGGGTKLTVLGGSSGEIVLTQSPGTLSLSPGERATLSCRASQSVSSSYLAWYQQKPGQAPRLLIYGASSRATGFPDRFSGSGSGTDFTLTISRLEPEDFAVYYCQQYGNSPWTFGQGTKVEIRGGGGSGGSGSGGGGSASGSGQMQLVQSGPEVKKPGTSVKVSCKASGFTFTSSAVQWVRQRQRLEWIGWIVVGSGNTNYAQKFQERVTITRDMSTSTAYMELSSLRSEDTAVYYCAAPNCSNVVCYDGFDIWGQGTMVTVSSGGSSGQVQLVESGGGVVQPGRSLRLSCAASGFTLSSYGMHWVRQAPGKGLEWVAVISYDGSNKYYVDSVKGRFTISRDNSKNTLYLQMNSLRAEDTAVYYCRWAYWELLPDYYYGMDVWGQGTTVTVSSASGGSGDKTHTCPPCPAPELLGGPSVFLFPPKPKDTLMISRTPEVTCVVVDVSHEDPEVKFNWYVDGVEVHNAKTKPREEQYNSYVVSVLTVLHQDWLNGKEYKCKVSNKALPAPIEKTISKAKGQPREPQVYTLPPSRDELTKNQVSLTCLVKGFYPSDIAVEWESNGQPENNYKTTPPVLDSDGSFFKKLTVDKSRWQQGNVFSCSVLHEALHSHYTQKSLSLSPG
Chain of MX413 (A19-61 × A23-58H/B1-182L) (bispecific antibody) (chain): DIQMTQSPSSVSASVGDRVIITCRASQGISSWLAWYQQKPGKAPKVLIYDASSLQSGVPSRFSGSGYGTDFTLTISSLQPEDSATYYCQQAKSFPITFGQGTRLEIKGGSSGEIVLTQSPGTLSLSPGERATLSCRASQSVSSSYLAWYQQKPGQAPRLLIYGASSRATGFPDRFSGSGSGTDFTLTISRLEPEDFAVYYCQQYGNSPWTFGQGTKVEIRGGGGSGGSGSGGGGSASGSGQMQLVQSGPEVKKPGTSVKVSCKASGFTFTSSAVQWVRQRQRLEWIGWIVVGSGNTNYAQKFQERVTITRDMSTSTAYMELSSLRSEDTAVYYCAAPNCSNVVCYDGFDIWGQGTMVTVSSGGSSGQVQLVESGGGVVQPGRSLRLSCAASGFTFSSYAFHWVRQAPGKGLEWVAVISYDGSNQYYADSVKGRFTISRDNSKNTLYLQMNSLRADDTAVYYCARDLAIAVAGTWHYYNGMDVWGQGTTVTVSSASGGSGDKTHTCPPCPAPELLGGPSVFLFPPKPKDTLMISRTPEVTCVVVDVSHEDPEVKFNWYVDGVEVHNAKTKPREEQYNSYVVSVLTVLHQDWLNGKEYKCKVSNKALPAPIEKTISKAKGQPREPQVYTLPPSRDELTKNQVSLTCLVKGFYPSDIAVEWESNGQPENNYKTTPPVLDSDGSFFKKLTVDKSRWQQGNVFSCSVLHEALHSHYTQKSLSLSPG
Chain of MX179 (A19-46 × B1-182) (bispecific antibody) (chain): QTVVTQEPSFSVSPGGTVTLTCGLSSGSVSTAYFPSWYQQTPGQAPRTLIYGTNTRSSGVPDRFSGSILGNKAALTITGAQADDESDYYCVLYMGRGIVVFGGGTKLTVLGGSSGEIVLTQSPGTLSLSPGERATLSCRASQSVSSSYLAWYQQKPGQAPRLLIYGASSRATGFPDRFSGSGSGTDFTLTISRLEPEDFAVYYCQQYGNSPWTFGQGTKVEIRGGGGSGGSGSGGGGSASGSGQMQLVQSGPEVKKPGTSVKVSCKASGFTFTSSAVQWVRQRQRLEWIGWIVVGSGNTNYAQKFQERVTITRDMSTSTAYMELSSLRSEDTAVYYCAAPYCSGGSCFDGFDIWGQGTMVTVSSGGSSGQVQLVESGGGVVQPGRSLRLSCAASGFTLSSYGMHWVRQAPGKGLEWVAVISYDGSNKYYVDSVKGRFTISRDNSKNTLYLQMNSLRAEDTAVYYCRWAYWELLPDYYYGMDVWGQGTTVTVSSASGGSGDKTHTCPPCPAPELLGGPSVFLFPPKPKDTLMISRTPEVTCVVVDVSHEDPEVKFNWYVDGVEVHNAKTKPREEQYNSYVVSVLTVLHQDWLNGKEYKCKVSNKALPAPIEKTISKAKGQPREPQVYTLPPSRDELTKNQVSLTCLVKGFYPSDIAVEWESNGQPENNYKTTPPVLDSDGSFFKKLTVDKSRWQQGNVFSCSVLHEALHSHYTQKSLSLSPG

Substance	IC50, pseudovirus neutralization [1] [nM]	IC80, pseudovirus neutralization [1] [nM]	IC50, pseudovirus neutralization [2] [nM]	IC80, pseudovirus neutralization [2] [nM]	IC50, pseudovirus neutralization [3] [nM]	IC80, pseudovirus neutralization [3] [nM]	IC50, pseudovirus neutralization [4] [nM]	IC80, pseudovirus neutralization [4] [nM]	IC50, pseudovirus neutralization [5] [nM]	IC80, pseudovirus neutralization [5] [nM]	IC50, pseudovirus neutralization [6] [nM]	IC80, pseudovirus neutralization [6] [nM]	IC50, pseudovirus neutralization [7] [nM]	IC80, pseudovirus neutralization [7] [nM]	IC50, pseudovirus neutralization [8] [nM]	IC80, pseudovirus neutralization [8] [nM]	IC50, pseudovirus neutralization [9] [nM]	IC80, pseudovirus neutralization [9] [nM]	IC50, pseudovirus neutralization [10] [nM]	IC80, pseudovirus neutralization [10] [nM]	also measured
bebtelovimab (LY1404, LY-CoV1404, LY3853133) (antibody)	> 10000	> 10000	13	86	> 10000	> 10000															
MX413 (A19-61 × A23-58H/B1-182L) (bispecific antibody)							0.0149	0.0614	0.0193	0.0655	6.58	20.5	0.0547	0.141	0.0141	0.0466	0.0386	0.092	0.025	0.0547	IC50, pseudovirus neutralization [11]: 0.089 nM; IC80, pseudovirus neutralization [11]: 0.166 nM; IC50, pseudovirus neutralization [12]: 0.0109 nM; IC80, pseudovirus neutralization [12]: 0.026 nM
MX183 (A19-61 × B1-182) (bispecific antibody)									0.23	0.948	> 66.7	> 66.7	0.803	5.66			1.02	1.65	0.43	2.27	IC50, pseudovirus neutralization [13]: 0.542 nM; IC80, pseudovirus neutralization [13]: 1.04 nM
MX413 (A19-61 x A23-58H/B1-182L) bispecific, tetravalent molecule with Fc (bispecific antibody)	3210	> 10000	21	71	> 10000	> 10000															
MX179 (A19-46 × B1-182) (bispecific antibody)							0.167	0.929			0.0068	0.0193			0.0137	0.0389					
MX492 (A19-46 x A23-58H/B1-182L) bispecific, tetravalent molecule with Fc (bispecific antibody)	783	2010	3	10	> 10000	> 10000															
MX409 (A23-58H/B1-182L Tetravalent) (antibody)							8.96	52.7	0.00313	0.00882	2.03	> 66.7	0.0139	0.0286	4.9	> 66.7	0.0073	0.0175	0.00182	0.00565	IC50, pseudovirus neutralization [11]: 0.0046 nM; IC80, pseudovirus neutralization [11]: 0.0124 nM; IC50, pseudovirus neutralization [12]: 0.005 nM; IC80, pseudovirus neutralization [12]: 0.0099 nM
MX468 (A19-61 × A23-58H/B1-182L CL-CH1) (bispecific antibody)							0.0224	0.0698			1.33	4.06			0.0289	0.0617					
A19-61.1 antibody	> 10000	> 10000	> 10000	> 10000	> 10000	> 10000															
A19-46.1 antibody	> 10000	> 10000	148	352	> 10000	> 10000															
MX412 (A23-58H/B1-182L × A19-61) (bispecific antibody)							0.0615	0.178	0.0279	0.0625	8.96	31.8	0.058	0.143	0.0304	0.0803	0.0365	0.084	0.042	0.0885	IC50, pseudovirus neutralization [11]: 0.583 nM; IC80, pseudovirus neutralization [11]: 1.78 nM; IC50, pseudovirus neutralization [12]: 0.014 nM; IC80, pseudovirus neutralization [12]: 0.0528 nM
